Experimental data published in patent publication US20180273595A1 (REGENTS OF THE UNIVERSITY OF MICHIGAN, published 2018).
Residue numbers refer to the chain shown, from its start. One block for each binder: values may come before it. Where no end group is shown, it is not given here. The star is where a group is joined. Biotin = O=C1N[C@H]2[C@H](CS[C@H]2CCCCC(=O)*)N1

Columns and labels:
[1] = biological target: T1, Halo-tagged full-length ERG (UniProt P11308 1-479); assay: pull-down of in vitro translated Halo-tagged protein with biotinylated peptide, anti-Halo immunoblot [cont'd]
T1 construct: mature; In vitro transcription/translation in wheat germ lysate; also called Halo-ERG fusion protein; not shown: HaloTag (about 35 kDa), N-terminal
T1 sequence (looked up): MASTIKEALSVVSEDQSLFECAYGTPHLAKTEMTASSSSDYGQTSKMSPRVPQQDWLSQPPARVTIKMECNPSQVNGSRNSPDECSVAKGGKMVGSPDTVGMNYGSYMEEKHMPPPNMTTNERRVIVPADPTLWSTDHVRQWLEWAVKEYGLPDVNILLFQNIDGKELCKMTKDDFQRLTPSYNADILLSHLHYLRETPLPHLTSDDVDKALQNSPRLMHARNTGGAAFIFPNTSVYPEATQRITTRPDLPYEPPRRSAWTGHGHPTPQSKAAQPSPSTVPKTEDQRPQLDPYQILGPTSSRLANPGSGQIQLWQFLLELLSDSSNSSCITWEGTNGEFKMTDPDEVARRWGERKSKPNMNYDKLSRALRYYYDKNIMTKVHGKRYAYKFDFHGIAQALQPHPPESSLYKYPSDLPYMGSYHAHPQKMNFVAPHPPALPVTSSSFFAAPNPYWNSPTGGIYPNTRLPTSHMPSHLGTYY

[2] = biological target: T2, Halo-tagged full-length ETS1 (UniProt P14921 1-441); assay: as above
T2 construct: mature; not shown: Halo-tag at the N-terminus
T2 sequence (looked up): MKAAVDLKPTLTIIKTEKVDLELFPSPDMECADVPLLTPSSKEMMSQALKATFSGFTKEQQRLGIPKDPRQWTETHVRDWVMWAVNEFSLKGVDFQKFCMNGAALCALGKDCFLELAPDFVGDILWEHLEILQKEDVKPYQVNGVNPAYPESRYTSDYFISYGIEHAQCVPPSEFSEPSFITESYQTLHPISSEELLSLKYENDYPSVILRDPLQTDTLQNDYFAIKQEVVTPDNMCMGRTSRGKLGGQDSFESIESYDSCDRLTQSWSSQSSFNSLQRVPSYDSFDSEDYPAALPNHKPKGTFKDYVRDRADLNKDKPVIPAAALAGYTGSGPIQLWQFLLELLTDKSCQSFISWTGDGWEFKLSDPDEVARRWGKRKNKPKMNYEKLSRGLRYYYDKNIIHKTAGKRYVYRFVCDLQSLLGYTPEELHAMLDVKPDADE

[3] = biological target: T3, Halo-tagged full-length ETV6 (UniProt P41212 1-452); assay: as above
T3 construct: mature; not shown: Halo-tag at the N-terminus
T3 sequence (looked up): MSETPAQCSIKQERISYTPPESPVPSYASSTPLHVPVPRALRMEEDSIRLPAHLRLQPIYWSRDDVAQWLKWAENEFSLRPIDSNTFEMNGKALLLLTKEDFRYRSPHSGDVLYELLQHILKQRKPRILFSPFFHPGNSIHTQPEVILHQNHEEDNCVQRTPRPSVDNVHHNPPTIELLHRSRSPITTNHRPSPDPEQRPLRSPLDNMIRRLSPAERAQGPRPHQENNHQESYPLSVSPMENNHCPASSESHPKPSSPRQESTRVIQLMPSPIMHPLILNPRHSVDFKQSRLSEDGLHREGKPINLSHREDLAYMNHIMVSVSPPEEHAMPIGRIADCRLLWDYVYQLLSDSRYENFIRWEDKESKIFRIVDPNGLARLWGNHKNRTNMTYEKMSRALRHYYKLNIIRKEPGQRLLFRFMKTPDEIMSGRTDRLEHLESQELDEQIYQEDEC

[4] = biological target: T4, Halo-tagged full-length Fli1 (UniProt Q01543 1-452); assay: as above
T4 construct: mature; not shown: Halo-tag at the N-terminus
T4 sequence (looked up): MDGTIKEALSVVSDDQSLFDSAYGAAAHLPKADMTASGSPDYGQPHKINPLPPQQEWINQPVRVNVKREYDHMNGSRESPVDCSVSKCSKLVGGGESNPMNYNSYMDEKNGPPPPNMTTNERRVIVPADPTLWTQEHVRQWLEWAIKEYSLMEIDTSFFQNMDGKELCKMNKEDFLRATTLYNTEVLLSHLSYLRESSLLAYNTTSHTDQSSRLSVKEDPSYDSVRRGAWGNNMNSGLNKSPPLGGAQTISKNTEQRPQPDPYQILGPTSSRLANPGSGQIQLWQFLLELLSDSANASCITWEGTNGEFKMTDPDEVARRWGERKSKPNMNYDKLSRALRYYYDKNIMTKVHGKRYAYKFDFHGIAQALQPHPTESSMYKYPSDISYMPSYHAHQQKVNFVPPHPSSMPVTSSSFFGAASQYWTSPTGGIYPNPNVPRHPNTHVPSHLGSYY

[5] = biological target: T5, Halo-tagged full-length ETV1 (UniProt P50549 1-477); assay: as above
T5 construct: mature; not shown: Halo-tag at the N-terminus
T5 sequence (looked up): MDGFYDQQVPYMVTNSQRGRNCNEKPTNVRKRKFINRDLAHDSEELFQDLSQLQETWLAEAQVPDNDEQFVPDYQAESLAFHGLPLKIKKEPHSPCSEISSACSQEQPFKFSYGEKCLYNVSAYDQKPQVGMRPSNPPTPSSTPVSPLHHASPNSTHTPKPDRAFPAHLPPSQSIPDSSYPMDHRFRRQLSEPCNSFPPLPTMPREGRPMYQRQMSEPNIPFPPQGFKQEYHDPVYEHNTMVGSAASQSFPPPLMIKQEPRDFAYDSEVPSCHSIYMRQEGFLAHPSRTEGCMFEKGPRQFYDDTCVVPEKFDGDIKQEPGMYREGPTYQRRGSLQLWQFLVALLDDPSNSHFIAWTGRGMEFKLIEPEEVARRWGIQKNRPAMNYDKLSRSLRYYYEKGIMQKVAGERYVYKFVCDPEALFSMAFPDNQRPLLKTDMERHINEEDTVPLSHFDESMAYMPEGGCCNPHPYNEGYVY

[6] = biological target: T6, recombinant His-tagged full-length ERG (UniProt P11308 1-479, biotinylated with NHS-PEG4 biotin for the OctetRED assays); assay: Kd table of synthetic peptides on ERG; assay not given
T6 construct: mature; Baculovirus expression in SF9 cells, Ni-NTA purified; also called wild-type ERG; wtERG; not shown: His tag
T6 sequence (looked up): T1 sequence (looked up)

[7] = biological target: T6, recombinant His-tagged full-length ERG; assay: binding assay of capped EIP1 variants (FIG. 13); capped EIP1, L5E
[8] = biological target: T6, recombinant His-tagged full-length ERG; assay: binding assay of capped EIP1 variants (FIG. 13); capped EIP1, Y4K
[9] = biological target: T6, recombinant His-tagged full-length ERG; assay: binding assay of capped EIP1 variants (FIG. 13); capped EIP1, Y4E
[10] = biological target: T7, ERG_Y373A (purified recombinant ERG with Y373A) (UniProt P11308 1-479, limits assumed, biotinylated for OctetRED); assay: pull-down of purified recombinant proteins with biotin peptide
T7 construct: also called Y373A mutation
T7 sequence (looked up): T1 sequence (looked up) with Y373A

[11] = biological target: T6, recombinant His-tagged full-length ERG; assay: pull-down of purified recombinant protein with biotinylated peptide, immunoblot
[12] = biological target: T8, endogenous ETV1 protein of LNCaP cells (UniProt P50549 1-477, limits assumed); assay: pull-down of cell lysate with biotinylated peptide, immunoblot αETV1
T8 sequence (looked up): T5 sequence (looked up)

[13] = biological target: T9, TMPRSS2:ERG gene fusion product, endogenous in VCaP cells (UniProt P11308 33-479, limits assumed); assay: pull-down of VCaP lysate with biotinylated peptide, ERG immunoblot
T9 construct: In cell lysates, in cells or in xenograft tumors; also called endogenous ERG; VCaP ERG
T9 sequence (looked up): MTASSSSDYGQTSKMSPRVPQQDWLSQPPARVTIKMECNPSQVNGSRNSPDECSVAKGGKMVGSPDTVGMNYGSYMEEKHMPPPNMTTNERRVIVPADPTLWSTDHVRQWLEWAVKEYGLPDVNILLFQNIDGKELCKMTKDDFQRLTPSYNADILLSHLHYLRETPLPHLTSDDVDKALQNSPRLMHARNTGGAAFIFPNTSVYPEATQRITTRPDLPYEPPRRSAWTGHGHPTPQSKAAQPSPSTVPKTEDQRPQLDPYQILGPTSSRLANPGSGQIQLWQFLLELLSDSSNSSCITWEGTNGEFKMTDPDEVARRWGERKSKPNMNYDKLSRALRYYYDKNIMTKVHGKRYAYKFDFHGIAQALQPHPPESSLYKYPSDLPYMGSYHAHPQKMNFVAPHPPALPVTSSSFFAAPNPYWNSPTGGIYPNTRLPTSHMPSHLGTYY

[14] = biological target: T10, wild-type ERG endogenous in HUVEC cells (human, UniProt P11308 1-479, limits assumed); assay: pull-down of whole cell lysate with biotinylated peptide, WB: αERG
T10 construct: also called HUVEC ERG
T10 sequence (looked up): T1 sequence (looked up)

[15] = biological target: T11, wild-type ERG endogenous in MS1 mouse endothelial cells (mouse, UniProt P81270 1-486, limits assumed); assay: as above
T11 construct: also called mERG; MS1 ERG
T11 sequence (looked up): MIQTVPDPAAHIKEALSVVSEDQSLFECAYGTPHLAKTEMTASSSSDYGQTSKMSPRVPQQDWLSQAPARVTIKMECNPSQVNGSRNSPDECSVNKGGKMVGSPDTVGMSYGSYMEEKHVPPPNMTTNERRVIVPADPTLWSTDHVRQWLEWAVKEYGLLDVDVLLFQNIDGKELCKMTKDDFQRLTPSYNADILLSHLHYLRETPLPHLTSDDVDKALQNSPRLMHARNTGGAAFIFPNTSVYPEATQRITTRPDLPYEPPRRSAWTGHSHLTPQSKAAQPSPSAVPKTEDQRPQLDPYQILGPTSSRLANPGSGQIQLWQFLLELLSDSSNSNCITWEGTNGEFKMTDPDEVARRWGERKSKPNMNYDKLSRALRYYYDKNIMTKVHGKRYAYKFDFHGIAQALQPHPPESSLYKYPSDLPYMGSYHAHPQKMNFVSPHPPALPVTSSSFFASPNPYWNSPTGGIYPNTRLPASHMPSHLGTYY

[16] = biological target: T12, Halo-tagged full-length Spi1 (UniProt P17947 1-270); assay: pull-down of Halo-tagged proteins with biotin peptide
T12 construct: mature; not shown: Halo-tag at the N-terminus

[17] = biological target: T13, Halo-tagged ERG mutant Y373A (UniProt P11308 1-479); assay: as above
T13 construct: mature; also called ERG (Y373A); negative control ERG (Y373A); not shown: Halo-tag at the N-terminus
T13 sequence (looked up): T1 sequence (looked up) with Y373A

Binder: Ac-LPPYEFT-NH2 [capped EIP1 with L at position five mutated to E]
Kd [6]: 5.09 µM
Kd [7]: 5.1 µM

Binder: Ac-LPPELFT-NH2 [capped EIP1 with Y at position four mutated to E]
Kd [9]: 3.6 µM
Kd [6]: 3.6 µM

B2: biotinylated EIP1 peptide (Biotin-LPPYLFT) (peptide)
peptide: Biotin-LPPYLFT
notes: also called Biotin-EIP1; biotin-conjugated EIP1
binding result [10]: no binding

Now from value to binder:

binding result [1]: no binding
binding result [2]: no binding
binding result [3]: no binding
binding result [4]: no binding
binding result [5]: no binding
B1: Biotin-HSKINPT (peptide)
peptide: Biotin-HSKINPT
notes: Control of the pull-down with Biotin-LSFGSLP; also called control peptide Biotin-HSKINPT

Kd [8]: 4.3 µM
Kd [6]: 4.27 µM
Binder: Ac-LPPKLFT-NH2 [capped EIP1 with Y at position four mutated to K]

binding result [11]: no binding
binding result [12]: no binding (tested: 50 µM)
binding result [13]: no binding (tested: 20 µM)
binding result [14]: no binding
binding result [15]: no binding
Binder: LPPALFT (also: biotin, position not given here, also called biotin-muEIP1) [biotinylated muEIP1 peptide]

binding result [16]: no binding
binding result [17]: no binding
Binder: Biotin-LSFGSLP (also called biotin-EIP2) [biotinylated EIP2 peptide (Biotin-LSFGSLP)]
